# Assay results from patent US11542515B2, “Methods and compositions for increasing efficiency of targeted gene modification using oligonucleotide-mediated gene repair” (CIBUS US LLC, priority 2016, dated 2023).
# d = 2'-deoxy (DNA); m = 2'-O-methyl
# System: EPSPS 2-25 gene
# Assay: EPSPS precise edits by Cas9 RNP plus GRON in leaf protoplasts (deep sequencing)
# Assay type: cell-based, Brassica napus
# Details: with Cas9 protein complexed with BnEPSPS gRNA-1, three weeks, three independent experiments
# Procedure: Brassica napus protoplasts derived from leaves of in vitro propagated nodal cuttings were seeded in a 50 ml centrifuge tube at 2,000,000 cells per tube and at a cell density of 5×10^6 cells/ml. CRISPR-Cas9 targeting the EPSPS 2-25 gene along with GRON was delivered as a ribonucleoprotein complex using the PEG method or by alternative delivery methods such as by electroporation, cell-penetrating peptides and/or lipid based delivery techniques. Protoplasts were incubated in the dark at 25° C. for three weeks, and then analyzed deep sequencing in order to determine the percentage of precise EPSPS edits and frequency of indels within a given treatment.
# The CRISPR-Cas9 consists of two components: the Streptococcus pyogenes Cas9 (SpCas9) and sgRNA which form the RNP CRISPR-Cas9 complex when mixed. The sgRNA is a fusion of CRISPR RNA (crRNA) and trans-activating crRNA (tracrRNA). The crRNA region contains the spacer sequence used to guide the Cas9 nuclease to the EPSPS target gene. In these experiments RNP CRISPR-Cas9 is used to target the EPSPS 2-25 gene. The GRON contains the coding sequence of the EPSPS gene near the site of conversion as well as nucleotide alterations to produce the desired changes to the EPSPS gene.
molecule,measurement,value
"2′OMe; BnEPSPS-2-25/NC 101-mer: 101-mer 2OMe GRON targeting Brassica napus EPSPS 2-25, SEQ ID NO: 336 (nucleic acid, sugars from the 5' end m1 d100, backbone and methylation of C not given here) UTACCTTGCGTTGCCACCTGCAGCAGTAACTGCAGCGGTAAGTGTACGCATCGCTATTCCAGCATTCCCAAGGTACAACTCGATATCACTCTTGGAATCTA",gene editing in the targeted epsps gene(s),0.07-0.125%
